Results from PMC10786891, “Massively parallel profiling of RNA-targeting CRISPR-Cas13d”.
Where a chain is given by its changes, count along the chain named. In names and notes the source's numbering stands.

T1: EsCas13d, nuclease-dead (Eubacterium siraeum, UniProt B0MS50, R295A;H300A;R849A;H854A)
T1 sequence: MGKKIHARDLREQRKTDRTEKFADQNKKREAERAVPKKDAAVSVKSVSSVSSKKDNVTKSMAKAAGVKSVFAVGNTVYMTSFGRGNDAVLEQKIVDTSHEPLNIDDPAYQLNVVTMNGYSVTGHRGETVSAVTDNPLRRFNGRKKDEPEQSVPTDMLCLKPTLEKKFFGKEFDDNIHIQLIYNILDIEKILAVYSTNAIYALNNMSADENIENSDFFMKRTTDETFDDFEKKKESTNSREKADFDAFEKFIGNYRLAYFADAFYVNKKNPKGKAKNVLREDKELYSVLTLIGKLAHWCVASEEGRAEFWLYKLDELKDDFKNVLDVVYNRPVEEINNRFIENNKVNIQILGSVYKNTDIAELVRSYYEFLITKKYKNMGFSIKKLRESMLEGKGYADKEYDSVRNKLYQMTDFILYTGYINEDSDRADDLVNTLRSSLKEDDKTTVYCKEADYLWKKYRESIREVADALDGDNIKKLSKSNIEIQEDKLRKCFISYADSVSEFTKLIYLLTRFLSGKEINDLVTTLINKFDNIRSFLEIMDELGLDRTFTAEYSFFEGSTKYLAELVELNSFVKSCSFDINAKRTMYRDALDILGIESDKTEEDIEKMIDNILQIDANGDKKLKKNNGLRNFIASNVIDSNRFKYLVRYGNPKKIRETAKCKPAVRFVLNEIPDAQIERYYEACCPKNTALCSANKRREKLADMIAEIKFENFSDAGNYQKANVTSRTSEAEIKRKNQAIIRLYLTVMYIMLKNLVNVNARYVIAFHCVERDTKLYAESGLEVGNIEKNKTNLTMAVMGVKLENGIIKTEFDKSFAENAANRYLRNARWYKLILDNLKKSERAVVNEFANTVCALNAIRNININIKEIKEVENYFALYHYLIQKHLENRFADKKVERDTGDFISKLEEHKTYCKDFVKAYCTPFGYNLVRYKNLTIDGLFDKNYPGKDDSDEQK

B1: target 1 insA 3' of 21,insU 3' of 12 (mixed)
RNA 1: CACCCGUGCAAAAAUGCAGGGGUCUAAAACUGAGCGGAUAACCUCUCUAUGG
RNA 2: GGGAAUGGAUCCACAUCUACGAAUUCGUACCAAUAGAGAGGUUUAUCCGCUCACCGAGAUCGGAAGAGCACACGU
B2: target 1 A1G,G5C (mixed)
RNA 1: B1 RNA 1
RNA 2: GGGAAUGGAUCCACAUCUACGAAUUCGUACCAUAGAGAGGUUAUCCCCUCGCCGAGAUCGGAAGAGCACACGU
B3: target 1 C7A,C21A (mixed)
RNA 1: B1 RNA 1
RNA 2: B2 RNA 2 with C31A, C45A, C47G, G51A
B4: target 1 insC 3' of 3,insG 3' of 2 (mixed)
RNA 1: B1 RNA 1
RNA 2: GGGAAUGGAUCCACAUCUACGAAUUCGUACCAUAGAGAGGUUAUCCGCUCCGACCGAGAUCGGAAGAGCACACGU
B5: target 1 insA 3' of 21,insU 3' of 2 (mixed)
RNA 1: B1 RNA 1
RNA 2: B1 RNA 2 with U44A, A45U, U46C, C48G, G49C, C50U, U51C, C52U
B6: target 1 C4G,C22U (mixed)
RNA 1: B1 RNA 1
RNA 2: B2 RNA 2 with C30U, C47G, C48G, G51A
B7: target 1 insU 3' of 4,insU 3' of 1 (mixed)
RNA 1: B1 RNA 1
RNA 2: B4 RNA 2 with C50U, G52A, A53U
B8: target 1 G5U,G15U (mixed)
RNA 1: B1 RNA 1
RNA 2: B2 RNA 2 with G37U, C47U, G51A
B9: target 1 insU 3' of 7,insG 3' of 6 (mixed)
RNA 1: B1 RNA 1
RNA 2: B4 RNA 2 with C46U, G47C, C48G, U49G, C51U, G52C
B10: target 1 A9G,U11G (mixed)
RNA 1: B1 RNA 1
RNA 2: B2 RNA 2 with U41G, A43G, C47G, G51A
B11: target 1 insU 3' of 21,insU 3' of 6 (mixed)
RNA 1: B1 RNA 1
RNA 2: B1 RNA 2 with A32U, U44A, A45U, U46C, C48U
B12: target 1 insC 3' of 10,insG 3' of 8 (mixed)
RNA 1: B1 RNA 1
RNA 2: B4 RNA 2 with A43C, U44A, C45U, C46G, G47C, U49G, C51U, G52C
B13: target 1 insG 3' of 16,insA 3' of 5 (mixed)
RNA 1: B1 RNA 1
RNA 2: GGGAAUGGAUCCACAUCUACGAAUUCGUACCAUAGAGGAGGUUAUCCGACUCACCGAGAUCGGAAGAGCACACGU
B14: target 1 A1C,A18U (mixed)
RNA 1: B1 RNA 1
RNA 2: B2 RNA 2 with A34U, C47G, G51C
B15: target 1 G12U,G13A (mixed)
RNA 1: B1 RNA 1
RNA 2: B2 RNA 2 with G39A, G40U, C47G, G51A
B16: target 1 insA 3' of 22,insC 3' of 8 (mixed)
RNA 1: B1 RNA 1
RNA 2: B1 RNA 2 with C31A, A32C, U44A, A45U, U46C
B17: target 1 insC 3' of 19,insA 3' of 13 (mixed)
RNA 1: B1 RNA 1
RNA 2: B1 RNA 2 with A33U, U34C, G41A, U42G
B18: target 1 insU 3' of 17,insG 3' of 9 (mixed)
RNA 1: B1 RNA 1
RNA 2: B1 RNA 2 with A33U, U34A, A35G, G36U, U44A, A45G
B19: target 1 A1G,A18U (mixed)
RNA 1: B1 RNA 1
RNA 2: B2 RNA 2 with A34U, C47G
B20: target 1 insA 3' of 22,insC 3' of 15 (mixed)
RNA 1: B1 RNA 1
RNA 2: B1 RNA 2 with C31A, A32C, A39C, G40A, U42G
B21: target 1 A18U (mixed)
RNA 1: B1 RNA 1
RNA 2: B2 RNA 2 with A34U, C47G, G51A
B22: target 1 insC 3' of 11,insA 3' of 8 (mixed)
RNA 1: B1 RNA 1
RNA 2: B13 RNA 2 with G38A, A39G, G41U, U42C, C46A, G48C, A49G
B23: target 1 G5C (mixed)
RNA 1: B1 RNA 1
RNA 2: B2 RNA 2 with G51A
B24: target 1 complement block 3-7 (mixed)
RNA 1: B1 RNA 1
RNA 2: B2 RNA 2 with C45G, C46G, C48G, U49A, G51A
B25: target 1 insA 3' of 21,insA 3' of 19 (mixed)
RNA 1: B1 RNA 1
RNA 2: B1 RNA 2 with G36A, A37G, G38A, A39G, G40A, U42G
B26: target 1 U3A,G17C (mixed)
RNA 1: B1 RNA 1
RNA 2: B2 RNA 2 with G35C, C47G, U49A, G51A
B27: target 1 insG 3' of 21,insA 3' of 8 (mixed)
RNA 1: B1 RNA 1
RNA 2: B1 RNA 2 with A32G, U44A, A45U, U46A
B28: target 1 insC 3' of 9,insG 3' of 6 (mixed)
RNA 1: B1 RNA 1
RNA 2: B13 RNA 2 with G38A, A39G, G41U, U43A, A44C, A49G
B29: target 1 A1U,A14C (mixed)
RNA 1: B1 RNA 1
RNA 2: B2 RNA 2 with A38C, C47G, G51U
B30: target 1 insC 3' of 18,insU 3' of 12 (mixed)
RNA 1: B1 RNA 1
RNA 2: B1 RNA 2 with A33U, U34A, A35C
B31: target 1 A14C (mixed)
RNA 1: B1 RNA 1
RNA 2: B2 RNA 2 with A38C, C47G, G51A
B32: target 1 A1C,G5C (mixed)
RNA 1: B1 RNA 1
RNA 2: B2 RNA 2 with G51C
B33: target 1 insG 3' of 7,insU 3' of 2 (mixed)
RNA 1: B1 RNA 1
RNA 2: B4 RNA 2 with C46G, G47C, C48G, U49C, C50U, G52U
B34: target 1 complement block 4-7 (mixed)
RNA 1: B1 RNA 1
RNA 2: B2 RNA 2 with C45G, C46G, C48G, G51A
B35: target 1 U19A,C21A (mixed)
RNA 1: B1 RNA 1
RNA 2: B2 RNA 2 with C31A, U33A, C47G, G51A

These binders were tested against T1, EsCas13d, nuclease-dead (assay: crRNA (strand 1, pre-loaded); Mg2+; 40 mM Tris-HCl pH 7.5, 150 mM NaCl, 6 mM MgCl2, 1 mM DTT, 0.1% Tween-20, 0.2 mg/ml BSA; 25 C; 10 min per concentration, then washed). Conditions: tags: His6-TwinStrep-SUMO cleaved; N-terminal SNAP kept (SNAP-Surface 488); label: 3' end held by stalled T7 RNA polymerase.
B1 was tested, and the Kd was 16.4 ± 0.8 nM.
B2 gave a Kd of 10 ± 0.5 nM.
In the case of B3, the Kd is reported as 36 ± 4 nM.
B4 was tested, and the Kd was 11.6 ± 0.7 nM.
For B5, the Kd was 17.9 ± 1 nM.
B6 gave a Kd of 10 ± 2 nM.
In the case of B7, the Kd is reported as 8.56 ± 0.33 nM.
B8 showed a Kd of 31 ± 4 nM.
In the case of B9, the Kd is reported as 16.7 ± 1.3 nM.
B10 showed a Kd of 15.1 ± 0.7 nM.
B11 was tested, and the Kd was 31.4 ± 1.6 nM.
B12 gave a Kd of 15.7 ± 0.8 nM.
Binder B13 has a Kd of 23.5 ± 1.5 nM.
For B14, the Kd was roughly 40 nM.
B15 was tested, and the Kd was 3.99 ± 0.22 nM.
In the case of B16, the Kd is reported as 22.3 ± 2 nM.
For B17, the Kd was 19.5 ± 1.7 nM.
B18 gave a Kd of 38 ± 4 nM.
With B19 the Kd was 24.6 ± 1.7 nM.
In the case of B20, the Kd is reported as 28.5 ± 2.2 nM.
With B21 the Kd was 26.4 ± 1.2 nM.
Binder B22 has a Kd of 41.4 ± 3.2 nM.
B23 showed a Kd of 9.6 ± 0.4 nM.
B24 gave a Kd of 12.9 ± 0.8 nM.
With B25 the Kd was 32.2 ± 2.4 nM.
For B26, the Kd was 44 ± 4 nM.
B27 was tested, and the Kd was 64 ± 11 nM.
B28 gave a Kd of 14.4 ± 1.2 nM.
Binder B29 has a Kd of 45 ± 6 nM.
With B30 the Kd was 28.6 ± 1.7 nM.
B31 was tested, and the Kd was 31 ± 7 nM.
B32 showed a Kd of 9 ± 0.7 nM.
B33 gave a Kd of 9.6 ± 0.9 nM.
B34 gave a Kd of 12.6 ± 0.8 nM.
Work on B35 yielded a Kd of 46 ± 5 nM.
